According to the RNAGym collection of RNA variant scans (doi:10.1073/pnas.2313332121):

B1: TPR t1 (parent)
chain: GACCAAUCUGCCCUCAGAGCUCGAGAACAUCUUCGGAUGCAGAGGAGGCAGGCUUCGGUGGCGCGAUAGCGCCAACGUCCUCAACCUCCAAUGCAUCCCACCACAUGAUGAUGCCUGAAGAGCCUUGGUUUUUUG

Variants of: B1
Experiment: polymerase ribozyme fitness, log enrichment relative to wild type (log ratio); higher = more active; in vitro selection for triplet polymerase activity
Outline: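 Both subunits of a heterodimeric triplet polymerase ribozyme were given their own mutant library, built by PCR and transcribed. Each library was annealed with a biotinylated primer, the partner subunit and triplets, incubated frozen at −7 °C, and its extended constructs gel-excised, captured on streptavidin beads and amplified by RT-PCR, all in one round done in triplicate. Fitness is the logarithm of genotype enrichment relative to wild-type enrichment, with replicates averaged by inverse-variance weighting. That logarithm is base 2, and Illumina-sequenced genotypes needed ≥10 input reads and ≥1 read per output.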

Variant	polymerase ribozyme fitness (log ratio)
G39U G117C	-4.79
C40G C86U A100U	-3.33
G39U C49G A118U	-0.724
C40A C53A G57U	-0.732
A41G G44C G63A C102U C124A G128A	-4.69
G39U G42A G57U G117A C124G	-3.25
G39A C56U G107U A111U U129A	-5.29
C40U A43G G61A G71U C124A	-4.58
C40G C49U G69A U78A	-4.96
G39A G69U C99A	-4.04
C40U G120C	0.116
A41G G42U A75G A90U G128C U129A	-4.64
A41G C53U G77A A108G	-2.63
C40U G60C	-0.857
C40U G110U G135C	-2.95
G39A G135U	-1.41
C40G U59A C86U A100U	-4.58
C40G	-0.921
C40A	-1.28
C40U	-0.543
G39U U54G C73G	-4.41
C40A C72U U92A C115A	-1.91
C40A C73U G128U	-3.11
G39U G107U G117U	-6.23

Variant	polymerase ribozyme fitness (log ratio)
G39U G45U C72A	-2.22
C40G G47U A74U	-4.86
G39A G48A A100C G120A	-1.06
C40U U54A	-0.773
G39A C62A C89G C101U	-5.16
C40A G69C C85G G110U U112C	-6.63
C40G A43G U54A	-4.85
G39U C97A	-5.98
G39C G93A	-2.3
A41G C53A C64A A121G	-4.97
G39A C124A	1.38
G39A C124G	1.36
C40U A91C C97U C115U	-3.9
A41G A90G	0.631
G39C U116C	-2.01
G39A G51U C79U C101U	-5.14
C40G C70U U106A U116A G120C	-2.18
C40G U81C	-1.19
A41C G71U	-0.988
C40U C56U A90U	-2.08
G39U G60U	-0.635
G39U G60A	0.0157
C40U U59A U116A	-4.02
C40G G71A	-1.91

Variant	polymerase ribozyme fitness (log ratio)
G39U C115U U131A	-2.02
A41G G61U G120C	0.573
G39U C40G	-3.47
C40G C72U	-1.47
G39C G135U	-0.712
C40A C86U G110U U112C	-3.84
G39U C123G U126C	-0.255
G39C C72U G93U A121U	0.127
C40G A50U	-0.606
C40U C49A C94U G117C	-5.09
C40A C85G C88U U129G	-3.87
G39U A74G	-1.85
G39A G60A C86U U116A	-3.99
G39A G61A C89A G120C	-1.19
A41U C49U C88A A121U	-0.675
C40A C114A	-3.51
C40U G71A U78G C123G U125C	-1.36
A41C C70A U78C G128U U131C	-4.08
G39C C70U C101A	-2.67
G39U C62A	-2.16
A41C G69U U112C	0.865
C40G C115A G120C G122U	-1.41
A41C C53G C85A A111U U112A U116C	-6.24
G39C G47C	-3.08

Variant	polymerase ribozyme fitness (log ratio)
C40U A95G	-1.37
C40A A43U C82U	-3.09
C40U G60U G110A	-1.76
A41G G63U G117C	-6.01
A41G U55G A75G U87A A108G	-4.14
C40U C53U G61C U131A	-0.765
C40G G52U	-2.76
C40G C88G U125G	-6.8
C40A C73U U78A	-0.967
G39A C56G C94G A111C C114U U130G	-4.67
C40U C62G	-3.29
C40U C88U	-0.588
C40G G52A A118U	-0.83
C40U A46U G47A C53G A66C G117C	-7.17
C40G G44C A74U U78G	-2.88
C40U C88A C114G	-2.99
G39A G71A C86A A100C	-4
C40U C82G	-1.54
G39A U96C	-0.886
G39C U78A C94A C123A C124A G128A	-0.0279
C40A G71C C101A U131C	-3.67
G39U A41U A43U G60U C82A C114A	-4.19
A41C A46G U109A	-7.53
G39U G61U G110U	-2

Variant	polymerase ribozyme fitness (log ratio)
A41U A46U	-2.26
C40U A74U A111C	-1.01
C40A G71U	-1.52
C40A G71A	-2
C40A G57U G122U	-2.54
A41G G61U A84G U96G C97U	-6.44
A41C C70U G71C G117U C123A G128A	-6.8
A41U A50G G77A	-0.647
C40G C101G C104U	-3.21
G39A G47U	-2.07
A41G G69U G93C	-0.214
G39U U59A C98U A121G	0.547
C40U A43U G57U G63C	-3.07
C40G G60U C104A	-1.87
G39A C97A G120C	-6.66
C40A A118U G120U	-1.37
C40U G48C C82A	-1.94
G39U A103C C114U A119U G120A U130A	-4.34
G39U C64U A91C C123A	-1.57
G39U G113C	-2.84
G39U G113U	-3.59
G39A G110C	-4.65
C40G G120U	-0.437
C40G G120A	0.215

Variant	polymerase ribozyme fitness (log ratio)
A41G U55A U130G	-0.934
G39U U106C U129C	-1.88
G39U C123A	-0.855
C40A C82G	-1.95
G39C G65U	-6.02
A41G G60A	-0.408
A41U C53A G58A	-1.32
C40U G47U C53U	-3.37
C40U A50U G51A C82A C85U	-4.25
C40A G45U	-2.77
G39A C73A G117A A119G	1.02
C40G C56U A91C	-2.49
G39U G61A C72G A103U	-5.55
C40A A46G U132A	-1.49
A41G U54C G61C C104A	-6.52
C40U G45U G63U U78C	-4.36
C40U G51A G71C	-4.85
A41C C72A	-2.08
C40U G51U	-3.7
C40G C56U G69U	-3.63
C40U G113A	-1.41
G39U U109G	-5.73
G39U A90G C98U C102A	-4.8
G39U U54A	-1.76

Variant	polymerase ribozyme fitness (log ratio)
C40G U109A C114G U132A	-4.05
C40U G48A C53A G61A U132A	-0.596
C40G A84G	-2.06
C40U G44A U125A	-1.32
C40G C70G	-4.89
C40G C56U C70A G77A C88U A103U A119G	-7.04
C40U C64U	-0.45
C40U G52A	-0.72
G39U G63A G93U	-3.17
A41U A90C	-1.41
G39U C49A	-0.99
C40A G52A C73U C104U U126A	-3.9
A41C G107C G117A	-6.25
A41U A50C	-1.53
G39U A90G C102A G117U A121C	-5.4
G39U C85G	-2.87
G39U C85U	-0.997
C40U C56U A74U U78C C89G	-2.81
C40A G44A U92G A95U C115U	-6.45
G39C U55A C56A U112C	-0.17
C40A C73A U81C C104U	-0.977
G39C C62A	-0.902
C40A A43G C56G G135U	-4.41
